“Also recorded” adds a separate entry of the source.
Key:
HSV-1 = test: Ex vivo HSV-1 infection of epidermal sheets from mouse tail skin; format: cell-based, Herpes Simplex Virus type 1; conditions: HSV-1 MOI=2, 48 h, FGF7 15 ng/ml, NSC23766 50 μM, AZD4547 1 μM
Protocol: FIG. 7D pertains to epidermal sheets from tail skin of wild-type mice that were infected ex vivo with HSV-1 (MOI=2) in the presence or absence of IFNα, FGF7, NSC23766 or AZD4547 and analyzed by immunofluorescence staining 48 h after infection with antibodies against Glyc-D (red). […] Cell nuclei were stained using DAPI (blue). Magnification bar: 800 μm. Values obtained for HSV-1 infected cells in (A-C) without additional treatment were set to 1.
HSV-1 infection of epidermal sheets from mouse tails was performed as previously described (Rahn et al., J. Invest. Dermatol 135, 3009-3016, 2015). Briefly, skin was removed from the tails of 3 month-old mice, followed by separation of the epidermis from the dermis by dispase treatment (5 mg/ml). After floating the epidermal sheets on serum-free DMEM overnight, they were incubated with HSV-1 alone (MOI=2) or in combination with FGF7 (15 ng/ml), IFNα (1000 U/ml) and/or NSC23766 (50 μM) or AZD4547 (1 μM) for 48 h and subsequently fixed in 4% PFA for 1 h at RT. The sheets were then incubated in blocking solution (PBS 2% BSA/1% fish skin gelatin/0.05% Triton Tx-100) for 2 h at RT and stained overnight at 4° C. with an antibody against Glyc-D diluted in blocking solution. […]

LCMV = format: cell-based, Lymphocytic Choriomeningitis Virus; conditions: HaCaT, LCMV MOI 0.05 or 0.2
ZIKV = ZIKV infection of HaCaT cells; format: cell-based, Zika Virus
Protocol: FIGS. 6B and C relate to HaCaT cells that were serum starved overnight and then infected with the ZIKV strains Uganda (strain 976) (MOI=0.1) or French-Polynesia (PF13/251013-18) (MOI˜20). 2h after infection cells were treated with 20 ng/ml FGF7 or left untreated (CTRL). Culture medium+/−FGF7 was changed every day. 48h post infection cells were analyzed by immunofluorescence using a Flavivirus group-specific antibody (4G2) detecting the ZIKV envelope protein (ZIKV-Env) (B). Magnification bar in (B): 40 μm. Alternatively, cells were analyzed for ZIKV mRNA levels by qRT-PCR relative to RPL27 (C). Mean expression levels in vehicle-treated cells were set to 1. Representative out of four independent experiments are shown.
HaCaT cells were seeded on a 4-well tissue chamber on a PCA slide (5×10^4/chamber). After overnight serum starvation, they were infected with the ZIKV strains Uganda (strain 976) (MOI=0.1) or French-Polynesia (PF13/251013-18) (MOI˜20). 2h post infection cells were treated with FGF7 or left untreated. Culture media+/−FGF7 was changed every day. 48 hours post-infection cells were either analyzed by immunofluorescence using a Flavivirus group-specific antibody (4G2) detecting the ZIKV envelope protein (ZIKV-Env) or harvested and analyzed for ZIKV expression levels by qRT-PCR relative to human RPL27 (ZIKV primers: 5′-[…] -3′, SEQ ID NO: 49; 5′-[…] -3′, SEQ ID NO: 50). To investigate the effect of ZIKV and FGF7 on ISG expression, HaCaT cells were seeded in 6-well plates. After overnight serum starvation, confluent cells were infected with the ZIKV strain French-Polynesia (PF13/251013-18) (MOI˜20) in the presence or absence of FGF7 (20 ng/ml). 72 h post-infection cells were harvested and analyzed for OAS1 and MxA by qRT-PCR relative to RPL27.

ISGs = conditions: cultured lung airway epithelial cells, Prince et al.; cited from earlier work

B1: FGF7: recombinant human FGF7, the classical ligand of FGFR2b (protein, UniProt P21781 32-194, looked up)
Fibroblast growth factor 7: CNDMTPEQMATNVNCSSPERHTRSYDYMEGGDIRVRRLFCRTQWYLRIDKRGKVKGTQEMKNNYNIMEIRTVAVGIVAIKGVESEFYLAMNKEGKLYAKKECNEDCNFKELILENHYNTYASAKWTHNGGEMFVALNQKGIPVRGKKTKKEQKTAHFLPMAIT
- HSV-1 infection / viral dissemination (Glyc-D staining) (HSV-1): stronger; also recorded: A strong increase in infected cells
- expression levels of LCMV nucleoprotein (NP) / viral replication (LCMV): strongly increased
- ZIKV gene expression (qRT-PCR relative to RPL27) (ZIKV; FGF7 20 ng/ml added 2 h after infection): efficient when added 2 h after the infection
- number of cells expressing the ZIKV envelope protein (ZIKV; FGF7 20 ng/ml, 48 h post infection): increased the number of cells expressing the ZIKV envelope protein
- increase of MxA and OAS1 expression during ZIKV infection (ZIKV; ZIKV French-Polynesia, FGF7 20 ng/ml, 72 h): strongly suppressed
- expression of ISGs (ISGs): suppresses the expression of a limited number of ISGs
